“And” between values parts separate entries of the source, which are not always exact repeats. Equal values may be shown once.
What was measured:
[1] = tested on: patients with cystic fibrosis; conditions: cited from earlier work
[2] = Gel electrophoresis of active agent after droplet generation; format: physicochemical
Excerpt: Gel Electrophoresis: To determine the stability of active agent after droplet generation, the generated stream of droplets including the active agent is collected and the molecular weight of the active agent is verified using gel electrophoresis.

[3] = Enbrel stability after aerosol generation, size exclusion chromatography; format: physicochemical; conditions: for Peak Area %, Peak 1 / Peak Area %, Peak 2 / Peak Area %, Peak 4 / Peak Area %, Peak 5: SEC UV 280 nm
Excerpt: Alternately, to determine the stability of active agent after droplet generation, the generated stream of droplets including the active agent may be collected and […] may be employed to monitor for any changes in large molecule aggregation and protein fragment content. Soluble protein aggregates and protein fragment content may be calculated by comparing respective peak area under the SEC-HPLC curve of dispensed protein solutions with controls (solutions remaining in the device reservoir). Drug solutions for testing include Enbrel, (ENBREL® single-use prefilled syringes in 25 mg (0.51 mL of a 50 mg/mL solution of etanercept), and insulin, (Humalog, 200 units/ml, 3 ml […] is performed with a YarraTM 3 um SEC-2000 LC column 300×7.8 mm, SecurityGuard cartridge kit and SecurityGuard cartridges GFC-2000, 4×3 mm ID. Fifty microliters of Enbrel from the syringe (ENBREL® single-use prefilled syringes in 25 mg/0.51 mL of a 50 mg/mL solution of etanercept) is diluted (4:1) (4 parts, 200 mcl of the mobile phase buffer solution to 1 part, 50 mcl Enbrel from syringe). Fifty microliter of the diluted Enbrel is injected and separation was performed at a flow rate of 1.0 ml/min. The mobile phase buffer system included a PHOS. BUFF. SALINE. […] UV detection is performed at 280 nm. […] An ampule/cartridge is filled with either 0.20 ml of Enbrel® (50 mg/ml) diluted 4:1 (10 mg/ml)(4 parts (200 mcl) of PBS and 0.025% NaN3 and 1 part (50 mcl of Enbrel solution from the syringe). After 20 actuations and aerosolization, about 150 mcl of the aerosolized Enbrel solution is recovered and collected in the polypropylene tube located below the ejector mechanism. The control consists of the diluted Enbrel solution, 50 mcl of which is injected into the SEC column for analysis.

[4] = Gravimetric analysis of delivered dose per actuation; format: physicochemical; conditions: for total delivered dose per actuation: from gravimetric mass and solution concentration; for average mass ejected per dose (actuation), gravimetric: solution filled ampule weighed before and after dosing, average of five doses
Experimental: Gravimetric analysis was performed by weighing the Enbrel solution filled ampule before and after dosing. The average of five doses (actuations) were analyzed with an average of 4.25 mg+/−0.15 mg. The total delivered dose of Enbrel per actuation is therefore […] per actuation.
Gravimetric analysis was performed by weighing the Insulin solution filled ampule before and after dosing. The average of five doses (actuations) were analyzed with an average of 5.01 mg+/−0.53 mg. The total delivered dose of Insulin per actuation is therefore 34.8 mcg per actuation.

[5] = Insulin stability after aerosol generation, size exclusion chromatography; format: physicochemical
Excerpt: Alternately, to determine the stability of active agent after droplet generation, the generated stream of droplets including the active agent may be collected and SEC-HPLIC may be employed to monitor for any changes in large molecule aggregation and protein fragment content. Soluble protein aggregates and protein fragment content may be calculated by comparing respective peak area under the SEC-HPLC curve of dispensed protein solutions with controls (solutions remaining in the device reservoir).
Drug solutions for testing include Enbrel, (ENBREL® single-use prefilled syringes in 25 mg (0.51 mL of a 50 mg/mL solution of etanercept), and insulin, (Humalog, 200 units/ml, 3 ml kwikpens)
To calculate and compare effects of droplet generation through an ejector mechanism of the disclosure, the total area under the curve of the UV signal at 280 nm versus elution time for controls is compared with the aerosolized samples, which is set to 100%.
Aerosol collection and SEC is performed in a similar fashion as for the Enbrel analysis and aerosol collection.
Fifty microliters of the collected aerosol spray is injected onto the SEC column for analysis, while 50 mcl of the Kwikpen insulin solution is injected onto the SEC column for control samples.

[6] = average of aerosolized S1 and S2
[7] = control, Enbrel diluted 4:1 (10 mg/ml), not aerosolized

NC[C@H]1O[C@H](O[C@H]2[C@H](O)[C@@H](O[C@H]3O[C@H](CO)[C@@H](O)[C@H](N)[C@H]3O)[C@H](N)C[C@@H]2N)[C@H](N)C[C@@H]1O [tobramycin]
effect on pulmonary function and kidney side effects ([1]; administration by inhalation): significantly improves pulmonary function without severe side effects to kidney functions | toxicity of serum levels ([1]; intravenous administration): toxic to the kidneys

Enbrel
change in electrophoretic mobility (molecular weight) of post-aerosol active agent versus control [2]: negligible change | Peak Area %, Peak 1 ([3]; aerosolized with test device, 20 actuations, ret time about 5.3 min): 2.796% and 3.476% | Peak Area %, Peak 2 ([3]; aerosolized with test device, 20 actuations, ret time about 5.8 min): 90.789% and 92.112% | Peak Area %, Peak 4 ([3]; aerosolized with test device, 20 actuations, ret time about 13 min): 0.357% and 0.352% | Peak Area %, Peak 5 ([3]; aerosolized with test device, 20 actuations, ret time about 25 min): 5.130% and 3.428% and 5.123% | Peak Area %, Peak 4, Avg. [3, 6]: 0.3545 | Peak Area %, Peak 5, Avg. [3, 6]: 4.2755 | Peak Area %, Peak 4 [3, 7]: 0% | Peak Area %, Peak 5 [3, 7]: 0% | Peak Area %, Peak 1 ([3]; control, Enbrel diluted 4:1 (10 mg/ml), not aerosolized, ret time 4.3-5.3 min): 2.428% and 3.041% | Peak Area %, Peak 2 ([3]; control, Enbrel diluted 4:1 (10 mg/ml), not aerosolized, ret time 4.8-5.8 min): 96.676% and 95.909% | fraction of the dose forming molecular fragments ([3]; fragments with elution times of 13 and 25 minutes): 4.6% | fraction structurally unchanged after delivering an aerosol dose ([3]; test device, SEC): 95.4% | total delivered dose per actuation [4]: 42.5 µg | average mass ejected per dose (actuation), gravimetric [4]: 4.25 mg

Insulin: insulin, Humalog, 200 units/ml, 3 ml kwikpens
Peak Area %, Peak 3, Avg. [5, 6]: 2.4905 | Peak Area %, Peak 3 ([5]; control, Kwikpen insulin solution 200 U/ml, not aerosolized): 0% | fraction of the ejected dose forming a fragment ([5]; fragment eluting at ~25 minutes): 2.5% | fraction of the ejected dose structurally unchanged ([5]; test device, SEC): 97.5% | total delivered dose per actuation [4]: 34.8 µg | average mass ejected per dose (actuation), gravimetric [4]: 5.01 mg

adalimumab
change in electrophoretic mobility (molecular weight) of post-aerosol active agent versus control [2]: negligible change

bevacizumab: antibody (Avastin)
change in electrophoretic mobility (molecular weight) of post-aerosol active agent versus control [2]: negligible change

From US11285284B2, “Methods for treatment of pulmonary lung diseases with improved therapeutic efficacy and improved dose efficiency” (PNEUMA RESPIRATORY, INC., priority 2016, dated 2022)
